From patent US7972772B2, “KIF11 and method for diagnosing non-small cell lung cancer” (Oncotherapy Science, Inc., priority 2004, dated 2011)

T1: endogenous KIF11 (Homo sapiens, UniProt P52732)
T1 construct: endogenous in cells
T1 sequence (P52732 1-1056): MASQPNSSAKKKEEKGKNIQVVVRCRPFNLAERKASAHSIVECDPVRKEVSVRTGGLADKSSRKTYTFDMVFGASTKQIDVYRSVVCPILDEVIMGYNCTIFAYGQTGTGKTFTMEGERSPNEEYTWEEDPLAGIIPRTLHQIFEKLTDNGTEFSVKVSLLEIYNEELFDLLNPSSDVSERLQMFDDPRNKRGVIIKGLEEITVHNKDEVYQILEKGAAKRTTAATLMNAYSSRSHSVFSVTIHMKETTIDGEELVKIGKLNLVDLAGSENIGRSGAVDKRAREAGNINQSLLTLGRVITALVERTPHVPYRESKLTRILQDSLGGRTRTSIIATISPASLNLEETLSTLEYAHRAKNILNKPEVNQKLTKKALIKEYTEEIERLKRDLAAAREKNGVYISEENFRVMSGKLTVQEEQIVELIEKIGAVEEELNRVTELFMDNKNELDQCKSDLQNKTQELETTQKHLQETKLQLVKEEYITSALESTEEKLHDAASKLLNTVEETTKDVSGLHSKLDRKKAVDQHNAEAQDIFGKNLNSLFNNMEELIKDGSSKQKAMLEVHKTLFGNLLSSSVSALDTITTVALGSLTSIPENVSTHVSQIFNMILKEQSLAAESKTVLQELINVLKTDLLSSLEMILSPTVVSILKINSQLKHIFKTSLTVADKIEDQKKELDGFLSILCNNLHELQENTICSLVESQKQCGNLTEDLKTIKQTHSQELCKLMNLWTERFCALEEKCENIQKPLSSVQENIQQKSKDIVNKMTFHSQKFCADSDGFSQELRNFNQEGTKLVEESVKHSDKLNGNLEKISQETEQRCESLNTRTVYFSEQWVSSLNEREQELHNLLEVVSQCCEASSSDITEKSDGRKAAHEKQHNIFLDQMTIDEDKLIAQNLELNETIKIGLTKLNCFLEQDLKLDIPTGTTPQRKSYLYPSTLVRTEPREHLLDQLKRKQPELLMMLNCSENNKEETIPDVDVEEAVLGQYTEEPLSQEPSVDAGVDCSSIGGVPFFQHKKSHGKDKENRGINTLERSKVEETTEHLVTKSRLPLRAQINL

T2: KOC1-KIF11 complex (Homo sapiens, UniProt P52732)
T2 construct: endogenous in cells; host or cells: LC319 (KOC1DEL3) and A549 (KOC1DEL2)
T2 sequence (P52732 1-1056): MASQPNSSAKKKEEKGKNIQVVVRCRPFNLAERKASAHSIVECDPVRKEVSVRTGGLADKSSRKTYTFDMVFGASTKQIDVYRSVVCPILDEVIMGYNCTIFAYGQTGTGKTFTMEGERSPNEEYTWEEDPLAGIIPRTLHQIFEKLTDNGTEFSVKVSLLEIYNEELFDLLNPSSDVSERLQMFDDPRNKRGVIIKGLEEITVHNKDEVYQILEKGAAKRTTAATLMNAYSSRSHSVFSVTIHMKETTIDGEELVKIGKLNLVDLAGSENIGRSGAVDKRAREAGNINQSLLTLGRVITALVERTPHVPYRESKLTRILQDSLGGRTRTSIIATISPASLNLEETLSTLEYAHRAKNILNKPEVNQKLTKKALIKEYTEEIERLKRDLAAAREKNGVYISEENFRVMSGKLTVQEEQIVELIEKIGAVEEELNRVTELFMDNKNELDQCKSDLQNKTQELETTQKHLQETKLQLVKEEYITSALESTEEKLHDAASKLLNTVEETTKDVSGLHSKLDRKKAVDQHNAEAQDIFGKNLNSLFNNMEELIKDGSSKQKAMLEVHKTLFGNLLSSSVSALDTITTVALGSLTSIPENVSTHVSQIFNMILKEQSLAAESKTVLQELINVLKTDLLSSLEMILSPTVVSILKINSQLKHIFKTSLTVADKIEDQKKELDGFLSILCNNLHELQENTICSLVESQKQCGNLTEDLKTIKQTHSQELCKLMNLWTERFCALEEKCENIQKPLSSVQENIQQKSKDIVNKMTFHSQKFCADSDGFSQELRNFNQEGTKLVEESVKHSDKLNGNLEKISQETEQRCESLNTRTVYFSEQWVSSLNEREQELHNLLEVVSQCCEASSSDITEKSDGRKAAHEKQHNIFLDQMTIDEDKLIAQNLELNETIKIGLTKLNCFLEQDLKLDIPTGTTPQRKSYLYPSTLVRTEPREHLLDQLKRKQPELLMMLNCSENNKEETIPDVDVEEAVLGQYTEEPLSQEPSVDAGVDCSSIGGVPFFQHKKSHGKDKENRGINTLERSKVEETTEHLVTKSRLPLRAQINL


Assays:
[1] = molecular target: T1, endogenous KIF11; test: Immunoprecipitation of KOC1 deletion mutants with endogenous KIF11; assay type: binding
[2] = test system: RAB35 mRNA; test: Northwestern blot analysis with DIG-labeled RAB35 mRNA; assay type: binding; conditions: deletion mutants expressed in A549 cells, compared to full-length KOC1
Protocol: Immunoprecipitated extracts from cells transfected with the KOC1 deletion mutants (μM) were boiled in 2×SDS-sample buffer, electrophoresed through 10-20% gradient polyacrylamide gels (BIO-RAD) and transferred to a polyvinylidene difluoride membrane (Hybond-P). The membrane was then blocked for 1 hour at room temperature in blocking buffer (10 mM Tris-HCl (pH 7.8), 150 mM NaCl, 1 mg/ml yeast tRNA), and washed twice with 50 ml of 10 mM Tris-HCl (pH 7.8) for 5 min and incubated with DIG-labeled RNA probe in 5 ml of NWB buffer (10 mM Tris-HCl (pH 7.8), 1 mM EDTA, 50 mM NaCl, 0.02% Ficoll, 0.02% polyvinyl pyrrolidone, 0.02% BSA) for 2 hours at room temperature. The membrane was washed four times with NWB buffer and the RNA probe bound to the proteins was then detected using DIG nucleic acid detection kit (Roche) according to the supplier's protocol.
To determine the region of KOC1 that is required for binding to KOC1-associated mRNAs, we performed northwestern blot analysis using immunoprecipitated recombinant proteins of KOC1 deletion-mutants expressed in A549 cells (FIG. 4a) and DIG-labeled RAB35 mRNA, which is one of the KOC1 associated mRNAs.

[3] = test system: A549 cells; test: Triplicate MTT assay of cell viability, A549; assay type: cell-based, human; conditions: A549, plasmid dose-dependent vs mock; P=0.0006 KOC1DEL2 vs mock
[4] = molecular target: T2, KOC1-KIF11 complex; test: Immunoprecipitation of endogenous KOC1-KIF11 complex after dominant-negative transfection; assay type: cell-based
Protocol: We performed dominant-negative assays using the KOC1 deletion mutants to investigate the functional role of the KOC1-KIF11 complex in growth or survival of lung-cancer cells. The KOC1DEL3 and KOC1DEL2 construct (FIG. 3a; 10 μg), mock plasmid (10 μg), or plasmid mixtures of both constructs in the final dose of 10-μg DNA (KOC1DEL3 or KOC1DEL2 vs mock (μg), 7.5:2.5; 5:5; or 2.5:7.5, individually) were transfected into LC319 cells. The transfected cells were cultured for 7 days in the presence of G418 and their viability was measured by triplicate MTT assays.
To investigate the functional significance of KOC1-KIF11 interaction for growth or survival of lung-cancer cells, a deletion fragment of KOC1 containing the two RRMs, which was able to interact with KIF11 (KOC1DEL3; FIG. 3a, b) was examined for a dominant-negative function of suppressing direct interaction between endogenous KOC1 and KIF11. […] We also confirmed that transfection of construct containing only KH-domains control have no effect on proliferation. […]

[5] = test system: LC319 cells; test: Triplicate MTT assay of cell viability, LC319; assay type: cell-based, human; conditions: LC319, plasmid 2.5-10 μg vs mock, 7 days with G418; P<0.001 KOC1DEL3 vs mock
Protocol: Using 30 μl of Lipofectamine 2000 (Invitrogen), 10 μg of siRNA-expression vector were transfected into NSCLC cell lines, A549 and LC319, both endogenously over-expressing KOC1, KIF11, NMU, GHSR1b, NTSR1, RAB35, and FOXM1. […] The transfected cells were cultured for five days in the presence of appropriate concentrations of geneticin (G418), and then, cell numbers and viability were measured by Giemsa staining and triplicate MTT assays. The target sequences of the synthetic oligonucleotides for RNAi were as follows: control 1 (EGFP: enhanced green fluorescent protein (EGFP) gene, a mutant of Aequorea victoria EGFP), 5′-[…]-3′ (SEQ.ID.NO.29); control 2 (Luciferase: Photinus pyralis luciferase gene), 5′-[…]-3′ (SEQ.ID.NO.30); control 3 (Scramble: chloroplast Euglena gracilis gene coding for 5S and 16S rRNAs), 5′-[…]-3′ (SEQ. ID. NO.31);
We performed dominant-negative assays using the KOC1 deletion mutants to investigate the functional role of the KOC1-KIF11 complex in growth or survival of lung-cancer cells. […] The transfected cells were cultured for 7 days in the presence of G418 and their viability was measured by triplicate MTT assays.

Molecule	interaction with endogenous KIF11 (immunoprecipitation) ([1]; A549 cells)	binding to RAB35 mRNA (northwestern blot) [2]	cell viability (MTT), dominant-negative assay [3]	complex formation between endogenous KOC1 and KIF11 ([4]; A549 cells over-expressing KOC1DEL2)	interaction with endogenous KIF11 (immunoprecipitation) ([1]; LC319 cells)	cell viability (MTT), dominant-negative assay [5]	complex formation between endogenous KOC1 and KIF11 ([4]; LC319 cells over-expressing the RRM domains)
KOC1DEL2: KOC1 deletion mutant 2×RRM+2×KH, positions 1 to 406 of SEQ ID NO:105 (protein, listed as Homo sapiens) MNKLYIGNLSENAAPSDLESIFKDAKIPVSGPFLVKTGYAFVDCPDESWALKAIEALSGKIELHGKPIEVEHSVPKRQRIRKLQIRNIPPHLQWEVLDSLLVQYGVVESCEQVNTDSETAVVNVTYSSKDQARQALDKLNGFQLENFTLKVAYIPDEMAAQQNPLQQPRGRRGLGQRGSSRQGSPGSVSKQKPCDLPLRLLVPTQFVGAIIGKEGATIRNITKQTQSKIDVHRKENAGAAEKSITILSTPEGTSAACKSILEIMHKEAQDIKFTEEIPLKILAHNNFVGRLIGKEGRNLKKIEQDTDTKITISPLQELTLYNPERTITVKGNVETCAKAEEEIMKKIRESYENDIASMNLQAHLIPGLNLNALGLFPPTSGMPPPTSGPPSAMTPPYPQFEQSETE	detected interaction	very weak binding affinities	significant dose-dependent decreases	reduced complex formation	–	–	–
KOC1DEL3: KOC1 deletion mutant 2×RRM without KH, positions 1-197 of SEQ ID NO:105 (protein, listed as Homo sapiens) MNKLYIGNLSENAAPSDLESIFKDAKIPVSGPFLVKTGYAFVDCPDESWALKAIEALSGKIELHGKPIEVEHSVPKRQRIRKLQIRNIPPHLQWEVLDSLLVQYGVVESCEQVNTDSETAVVNVTYSSKDQARQALDKLNGFQLENFTLKVAYIPDEMAAQQNPLQQPRGRRGLGQRGSSRQGSPGSVSKQKPCDLP	–	did not bind	–	–	detected interaction	significant dose-dependent decreases	reduce complex formation
